# Assay results: paper PMC2785718, “Structure/function studies of dogfish α-crystallin, comparison with bovine α-crystallin” (Molecular Vision, 2009)
# T1: dogfish αB-crystallin (spiny dogfish (endogenous in lens), UniProt P02512 1-177)
# T1 construct: αB-crystallin polypeptide of spiny dogfish lens α-crystallin; native subunit, not separated from αA-crystallin; tryptophan at positions 9, 49 and 63; Native polypeptide from lens; It accounts for >80% of dogfish α-crystallin; also called αB polypeptide; αB subunit
# T1 sequence (looked up): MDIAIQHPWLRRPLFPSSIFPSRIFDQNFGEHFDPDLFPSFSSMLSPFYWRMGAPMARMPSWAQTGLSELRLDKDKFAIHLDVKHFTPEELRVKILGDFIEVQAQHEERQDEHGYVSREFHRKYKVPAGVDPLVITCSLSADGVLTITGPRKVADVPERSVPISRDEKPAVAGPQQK
# T2: bovine αB-crystallin (bovine (endogenous in lens), UniProt P02510 1-175)
# T2 construct: αB-crystallin polypeptide of bovine lens α-crystallin; native subunit, not separated from αA-crystallin; Native polypeptide from lens; also called bovine αB-crystallin polypeptide
# T2 sequence (looked up): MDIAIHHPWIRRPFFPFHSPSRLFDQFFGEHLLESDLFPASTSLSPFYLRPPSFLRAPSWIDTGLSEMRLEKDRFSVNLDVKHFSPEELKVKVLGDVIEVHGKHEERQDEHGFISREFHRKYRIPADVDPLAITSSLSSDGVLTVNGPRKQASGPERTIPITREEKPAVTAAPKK
# Tests used:
# dogfish αB-crystallin = molecular target: T1, dogfish αB-crystallin; assay: SEC; gel filtration of lens extract on Sephacryl S300 in phosphate buffered saline with sodium azide, pH 7.2, room temperature; central 50% of the α-crystallin peak rechromatographed; size by comparison with known proteins; subunits of the isolated native hetero-oligomer by SDS-PAGE (only α-crystallin polypeptides present); details: both partners purified
# bovine αB-crystallin = molecular target: T2, bovine αB-crystallin; assay: as above; details: both partners purified
stoichiometry N (dogfish αB-crystallin),binding result (bovine αB-crystallin),Binder
~0.2 αA:αB,,"dogfish αA-crystallin (natural protein, spiny dogfish (endogenous in lens), UniProt P02509 1-177, looked up, αA-crystallin polypeptide of spiny dogfish lens α-crystallin; native subunit, not separated from αB-crystallin; tryptophan at positions 9 and 154; Native polypeptide from lens; also called αA chain; αA-crystallin subunit) MDLAIQYPWFRRSLGSFYPSRLFDQFFGEGLFDYDLFPFFSSTISPYYRQSVFRNFLDSGISEVRSEKDRFMINLNVKHFSPEELSVKIVDDYVEIHGKHAERQEDQGRVSREFHRTYHLPSNLNESAIACSLSNEGLLTLCCPKTRPGDDSNWQDRPIPVSREEKQGTQPEIRADP"
,binds,"bovine αA-crystallin (natural protein, bovine (endogenous in lens), UniProt P02470 1-173, looked up, αA-crystallin polypeptide of bovine lens α-crystallin; native subunit, not separated from αB-crystallin; Native polypeptide from lens; also called bovine αA chain; bovine αA-crystallin subunit) MDIAIQHPWFKRTLGPFYPSRLFDQFFGEGLFEYDLLPFLSSTISPYYRQSLFRTVLDSGISEVRSDRDKFVIFLDVKHFSPEDLTVKVQEDFVEIHGKHNERQDDHGYISREFHRRYRLPSNVDQSALSCSLSADGMLTFSGPKIPSGVDAGHSERAIPVSREEKPSSAPSS"
